Measurements from patent publication US20130022601A1 (Hoffmann-La Roche, published 2013).

Assays:
Her3 (ErbB3) receptor = target: T1, Her3 (ErbB3) receptor (human, UniProt P21860 20-1342); assay: flow cytometry on A431 cells, PE-coupled anti-human Fc secondary antibody
T1 construct: whole, on cells; Endogenous receptor on human cancer cell lines
Method: (§1) A431 were detached and counted. 1.5×10e5 cells were seeded per well of a conical 96-well plate. Cells were spun down (1500 rpm, 4° C., 5 min) and incubated for 30 min on ice in 50 μL of a dilution series of the respective bispecific antibody in PBS with 2% FCS (fetal calf serum). Cells were again spun down and washed once with 200 μL PBS containing 2% FCS followed by a second incubation of 30 min with a phycoerythrin-coupled antibody directed against human Fc which was diluted in PBS containing 2% FCS (Jackson Immunoresearch, 109116098). Cells were spun down washed twice with 200 μL PBS containing 2% FCS, resuspended in BD CellFix solution (BD Biosciences) and incubated for at least 10 min on ice. Mean fluorescence intensity (mfi) of the cells was determined by flow cytometry (FACS Canto, BD). Mfi was determined at least in duplicates of two independent stainings Flow cytometry spectra were further processed using the FlowJo software (TreeStar). Half-maximal binding was determined using XLFit 4.0 (IDBS) and the dose response one site model 205.
(§2) The binding properties of the bispecific antibodies to their respective receptor on the cell surface was analyzed on A431 cancer cells in a flow cytometry based assay. Cells were incubated with the mono- or bispecific primary antibodies and binding of these antibodies to their cognate receptors was detected with a secondary antibody coupled to a fluorophore binding specifically to the Fc of the primary antibody. The mean fluorescence intensity of a dilution series of the primary antibodies was plotted against the concentration of the antibody to obtain a sigmoidal binding curve. Cell surface expression of c-Met and Her3 was validated by incubation with the bivalent 5D5 and Her3 clone 29 antibody only. The Her3/c-Met_KHSS antibody readily binds to the cell surface of A431.

c-Met receptor = target: T2, c-Met receptor (human, UniProt P08581 25-1390); assay: as above
T2 construct: whole, on cells; Endogenous receptor on human cells
Method: as §1, §2

T1 sequence (P21860 20-1342): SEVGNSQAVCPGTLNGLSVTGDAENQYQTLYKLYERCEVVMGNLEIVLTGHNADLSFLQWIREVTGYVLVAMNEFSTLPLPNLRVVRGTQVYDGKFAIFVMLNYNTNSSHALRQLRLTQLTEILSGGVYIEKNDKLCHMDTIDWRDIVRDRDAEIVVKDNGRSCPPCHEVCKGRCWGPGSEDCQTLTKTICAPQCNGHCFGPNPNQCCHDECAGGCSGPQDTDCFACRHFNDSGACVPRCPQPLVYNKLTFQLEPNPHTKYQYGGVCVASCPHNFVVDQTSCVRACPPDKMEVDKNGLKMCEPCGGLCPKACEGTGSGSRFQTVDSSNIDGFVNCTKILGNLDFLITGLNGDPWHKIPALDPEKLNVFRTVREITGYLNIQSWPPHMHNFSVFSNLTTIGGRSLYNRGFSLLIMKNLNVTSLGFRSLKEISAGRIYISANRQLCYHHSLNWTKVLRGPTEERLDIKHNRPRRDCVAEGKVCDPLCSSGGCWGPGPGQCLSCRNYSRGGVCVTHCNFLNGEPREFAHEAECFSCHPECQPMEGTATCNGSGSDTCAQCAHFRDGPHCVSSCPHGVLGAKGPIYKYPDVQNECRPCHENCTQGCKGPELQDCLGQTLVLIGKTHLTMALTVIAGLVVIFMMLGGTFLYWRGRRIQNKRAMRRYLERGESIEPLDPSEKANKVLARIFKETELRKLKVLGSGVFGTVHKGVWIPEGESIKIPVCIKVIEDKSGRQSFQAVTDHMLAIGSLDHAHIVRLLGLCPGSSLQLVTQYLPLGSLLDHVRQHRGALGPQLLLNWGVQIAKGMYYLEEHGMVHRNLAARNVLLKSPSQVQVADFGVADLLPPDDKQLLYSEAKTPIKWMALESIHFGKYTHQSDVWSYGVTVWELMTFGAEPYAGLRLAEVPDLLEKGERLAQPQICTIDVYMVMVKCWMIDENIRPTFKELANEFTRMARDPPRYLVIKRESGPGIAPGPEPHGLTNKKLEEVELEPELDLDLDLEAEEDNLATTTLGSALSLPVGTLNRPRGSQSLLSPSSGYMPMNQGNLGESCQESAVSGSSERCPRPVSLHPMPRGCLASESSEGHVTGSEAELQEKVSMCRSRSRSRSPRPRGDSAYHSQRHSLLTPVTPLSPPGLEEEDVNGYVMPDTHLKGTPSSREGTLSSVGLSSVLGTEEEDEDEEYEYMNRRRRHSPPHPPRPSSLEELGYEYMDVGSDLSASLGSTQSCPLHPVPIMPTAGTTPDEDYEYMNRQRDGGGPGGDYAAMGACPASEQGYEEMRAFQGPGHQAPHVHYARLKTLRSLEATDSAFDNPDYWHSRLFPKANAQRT
T2 sequence (P08581 25-1390): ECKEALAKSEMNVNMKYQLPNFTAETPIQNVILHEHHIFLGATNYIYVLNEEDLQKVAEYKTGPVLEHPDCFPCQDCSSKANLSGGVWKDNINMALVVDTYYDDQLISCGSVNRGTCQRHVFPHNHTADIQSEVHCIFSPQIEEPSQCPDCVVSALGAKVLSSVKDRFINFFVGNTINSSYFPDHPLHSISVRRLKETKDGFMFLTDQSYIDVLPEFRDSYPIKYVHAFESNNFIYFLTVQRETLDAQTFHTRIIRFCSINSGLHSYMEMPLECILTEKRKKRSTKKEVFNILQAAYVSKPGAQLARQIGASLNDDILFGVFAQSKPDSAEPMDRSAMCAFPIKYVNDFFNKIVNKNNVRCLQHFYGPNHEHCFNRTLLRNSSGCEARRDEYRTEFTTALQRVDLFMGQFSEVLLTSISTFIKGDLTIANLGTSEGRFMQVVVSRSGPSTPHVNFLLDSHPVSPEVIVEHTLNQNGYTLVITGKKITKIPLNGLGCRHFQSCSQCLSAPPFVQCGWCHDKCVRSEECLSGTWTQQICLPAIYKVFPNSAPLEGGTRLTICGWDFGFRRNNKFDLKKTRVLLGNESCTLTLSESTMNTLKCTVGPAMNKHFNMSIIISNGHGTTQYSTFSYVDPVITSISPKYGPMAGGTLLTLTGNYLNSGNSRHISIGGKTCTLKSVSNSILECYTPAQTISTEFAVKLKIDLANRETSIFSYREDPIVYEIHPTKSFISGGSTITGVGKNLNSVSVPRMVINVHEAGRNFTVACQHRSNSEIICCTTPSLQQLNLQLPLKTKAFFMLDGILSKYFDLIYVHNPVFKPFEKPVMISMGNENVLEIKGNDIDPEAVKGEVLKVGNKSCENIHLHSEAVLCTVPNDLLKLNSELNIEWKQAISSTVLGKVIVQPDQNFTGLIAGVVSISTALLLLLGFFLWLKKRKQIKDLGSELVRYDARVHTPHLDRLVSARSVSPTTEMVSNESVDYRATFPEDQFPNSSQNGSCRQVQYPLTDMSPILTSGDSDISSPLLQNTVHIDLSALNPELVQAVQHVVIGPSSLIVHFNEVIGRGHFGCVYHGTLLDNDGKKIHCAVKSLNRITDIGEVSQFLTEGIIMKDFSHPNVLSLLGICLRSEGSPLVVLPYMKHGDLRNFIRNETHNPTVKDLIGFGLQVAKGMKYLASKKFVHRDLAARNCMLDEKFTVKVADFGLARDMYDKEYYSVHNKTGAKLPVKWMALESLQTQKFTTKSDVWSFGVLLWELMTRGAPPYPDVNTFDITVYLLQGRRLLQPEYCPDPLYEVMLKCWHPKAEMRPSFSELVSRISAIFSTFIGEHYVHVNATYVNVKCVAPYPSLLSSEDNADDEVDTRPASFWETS

B1: <ErbB3> HER3 clone 29 antibody (antibody, human IgG1, kappa, V domains shown)
VH: DVQLQESGPGLVKPSQSLSLTCSVTGYSITSAYYWNWIRQFPGNKLEWMGYISYGGSNSYAPSLKNRFSITRDTSKNQFFLKLNSVTTEDTATYYCARESDYAYFDYWGQGTTLTVSS
VL: DIQMTQTTSSLSASLGDRVTISCRARQDISNYLNWYQRKPDGTVKLLIYYTSRLHSGVPSRFSGSGSGTDYSLTISNLEQEDIATYFCQQGNTFPWTFGGGTKLEIKR
notes: Bivalent parental antibody (chimeric), with unmodified heavy and light chains; also called parental Her3 clone29
binding result (Her3 (ErbB3) receptor): binds

B2: trivalent, bispecific <ErbB3-c-Met> antibody Her3/Met_KHSS (bispecific antibody, human IgG1, kappa)
heavy 1: not shown
heavy 2: not shown
light: DIQMTQTTSSLSASLGDRVTISCRARQDISNYLNWYQRKPDGTVKLLIYYTSRLHSGVPSRFSGSGSGTDYSLTISNLEQEDIATYFCQQGNTFPWTFGGGTKLEIKRTVAAPSVFIFPPSDEQLKSGTASVVCLLNNFYPREAKVQWKVDNALQSGNSQESVTEQDSKDSTYSLSSTLTLSKADYEKHKVYACEVTHQGLSSPVTKSFNRGEC
notes: Full length Her3 clone 29 (chimeric) antibody with knobs-into-holes and CH3 disulfide mutations
binding result (Her3 (ErbB3) receptor): binds

B3: <c-Met> Mab 5D5 (antibody, human IgG1, kappa, V domains shown)
VH: EVQLVESGGGLVQPGGSLRLSCAASGYTFTSYWLHWVRQAPGKGLEWVGMIDPSNSDTRFNPNFKDRFTISADTSKNTAYLQMNSLRAEDTAVYYCATYRSYVTPLDYWGQGTLVTVSS
VL: DIQMTQSPSSLSASVGDRVTITCKSSQSLLYTSSQKNYLAWYQQKPGKAPKLLIYWASTRESGVPSRFSGSGSGTDFTLTISSLQPEDFATYYCQQYYAYPWTFGQGTKVEIKR
notes: Bivalent 5D5 antibody (humanized), with unmodified heavy and light chains; also called bivalent 5D5; c-Met 5D5
binding result (c-Met receptor): binds
